Data: patent publication US20250210128A1, “COMPUTER-IMPLEMENTED DESIGN OF PEPTIDE:RECEPTOR SIGNALING COMPLEXES FOR ENHANCED CHEMOTAXIS” (Ecole Polytechnique Federale de Lausanne (EPFL), priority 2022, published 2025)

Assays:
[1] = target: WT CXCR4 with an N-terminal 3xHA-tag (human) (UniProt P61073); experiment: cell-based or functional assay
[2] = target: CLdes CXCR4 sensor (Cdes2 design combined with H113N) (human); experiment: cell-based or functional assay

WT CXCR4 with an N-terminal 3xHA-tag (human), sequence (P61073 other isoform, or with tags, fused parts or gaps): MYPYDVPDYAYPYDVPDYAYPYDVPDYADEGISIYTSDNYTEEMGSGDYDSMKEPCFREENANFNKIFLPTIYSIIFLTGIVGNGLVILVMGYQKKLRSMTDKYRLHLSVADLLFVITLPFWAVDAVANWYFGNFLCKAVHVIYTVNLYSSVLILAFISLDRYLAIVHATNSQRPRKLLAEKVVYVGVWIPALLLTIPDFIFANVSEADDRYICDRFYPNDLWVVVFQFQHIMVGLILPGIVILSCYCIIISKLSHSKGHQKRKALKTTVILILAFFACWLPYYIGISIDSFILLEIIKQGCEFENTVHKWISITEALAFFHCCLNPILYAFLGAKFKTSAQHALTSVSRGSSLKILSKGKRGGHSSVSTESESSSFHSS

migration of transduced primary human T cells (Boyden chamber, migration index over no-chemoattractant control) [1]: 1.5 fold
migration of transduced primary human T cells (Boyden chamber, migration index over no-chemoattractant control) [2]: < 5 fold
Substance: full-length wild-type CXCL12 chemokine (from UniProt P48061 22-93) (ligand)
